{"source": "patent US11072647B2", "about": "“TGF-receptor II isoform, fusion peptide, methods of treatment and methods in vitro” (Onsejo Nacional DE Investigation Cientiticay Tecnica, priority 2013, dated 2021)", "molecules": {"B1": {"name": "TβRII-SE: 80 amino acid soluble endogenous isoform of human TGF-β receptor II lacking the transmembrane domain, SEQ ID No. 2 (protein, listed as Homo sapiens)", "chain": "MGRGLLRGLWPLHIVLWTRIASTIPPHVQKSVNNDMIVTDNNGAVKFPQLCKFCDVRFSTCDNQKSCFSKVHYEGKKKAW"}}, "system": "TβRII receptors (TβRII-A, TβRII-B and TβRII-SE) mRNA in hASCs", "experiment": "RT-PCR / qRT-PCR of TβRII isoform mRNA in transduced hASC", "format": "cell-based, human", "description": "To further assess the agonistic role of the TβRII-SE isoform, hASCs were transduced with Lt-TβRII-SE, Lt-TβRIIA-DN, and Lt.eGFP, at an MOI of 150 as described in the examples. Seventy two hours after transduction the percentage of eGFP expressing cells was measured by flow cytometry (FIG. 11A).\nmRNA levels of all three isoforms of Type II TGF-β receptor were also quantified by qRT-PCR (FIG. 13).\nTotal RNA from different primary cultures and cell lines was isolated using the Absolutely RNA kit (Stratagene, La Jolla, Calif., USA). First-strand cDNA was synthesized by mixing 1 μg of DNA free total RNA, 50 pmol primer p(DT)15 (Roche Diagnostics GmbH, Mannheim, Germany), 0.5 mM deoxyribonucleotide triphosphate, 5 mM dithiothreitol, and 1 U Expand Reverse Transcriptase (Roche Diagnostics GmbH). cDNA corresponding to different isoforms of TβRII receptor was detected by PCR amplification in the presence of Expand High Fidelity polymerase (Roche Diagnostics GmbH), 0.2 mM dNTPS, and 0.5 μM of each primer (forward: 5′[…]3′ (SEQ ID No. 10) and reverse: 5′[…]3′ (SEQ ID No. 11) for 35 cycles using the following PCR conditions: 1 min. at 95° C., 1 min. at 55° C., and 1 min. at […]", "data": [{"molecule": "B1", "values": [{"measurement": "TβRII isoform A expression (RT-PCR, 582 bp band)", "setting": "transduced hASC", "value": "downregulates TβRII isoform A expression"}, {"measurement": "TβRII-A and B variants mRNA levels (qRT-PCR)", "setting": "transduced hASC vs untransduced", "value": "decreased dramatically"}]}]}
